Test results: patent US20150231218A1 (MAYO FOUNDATION FOR MEDICAL EDUCATION AND RESEARCH, published 2015)

Biological target: T1, HLA-A2 (class I MHC molecule) on TAP deficient T2 cells
T1 construct: whole, on cells; Target of the T2 HLA-A2 stabilization assay; The assay text says only HLA-A2; also called HLA-A*0201
Assay: T2 HLA-A2 stabilization assay
Description: Many of the polypeptides that were processed in the assay were synthesized and tested for binding to the class I MHC molecule, HLA-A2, using the standard T2 HLA-A2 stabilization assay.

SLAFLPESFD (Synthetic peptide) [HER-2/neu polypeptide p373-382 (SLAFLPESFD)]: binds.
